In data set [1] the target is T1, biotinylated synthetic D-Abl SH2 domain (human, UniProt P00519-2 141-240, all residues in D-configuration; biotin (position not given)).
T1 chain: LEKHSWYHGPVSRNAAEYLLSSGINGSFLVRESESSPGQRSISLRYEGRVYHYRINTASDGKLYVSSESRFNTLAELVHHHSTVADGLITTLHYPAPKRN
Put plainly: FACS; yeast surface display.

Data set [2] addresses T2, D-Abl SH2 domain (synthetic mirror-image SH2 domain of human BCR::ABL1) (human, UniProt P00519-2 141-240, all residues in D-configuration).
T2 chain: T1 chain
Put plainly: ITC. A general note: In ITC the heat of successive injections is recorded.

For data set [3], the target named is T3, L-Abl SH2 domain (recombinant) (human).
T3 chain: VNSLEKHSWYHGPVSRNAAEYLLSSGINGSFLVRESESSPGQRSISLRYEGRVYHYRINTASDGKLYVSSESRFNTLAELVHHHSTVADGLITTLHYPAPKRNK
Put plainly: ITC.

Data set [4] has as its target T3, L-Abl SH2 domain (recombinant). The data set can be described thus: ITC; monobody in the syringe titrated to the SH2 domain, 20 mM HEPES pH 7.4, 150 mM NaCl, 0.5 mM TCEP-HCl, 25 °C, 1:1 binding model.
The target in data set [5] is T2, D-Abl SH2 domain (synthetic …). Put plainly: ITC.
Data set [6] concerns the target D-Abl SH2 domain (synthetic mirror-image SH2 domain of human BCR::ABL1) (human) (UniProt P00519). Put plainly: ITC; monobody in the syringe titrated to the SH2 domain, 20 mM HEPES pH 7.4, 150 mM NaCl, 0.5 mM TCEP-HCl, 25 °C, 1:1 binding model.
Data set [7] concerns the target T2, D-Abl SH2 domain (synthetic …). Put plainly: ITC.
In data set [8] the target is T4, D-Abl SH2 domain (synthetic mirror-image SH2 domain of human BCR::ABL1) (human, UniProt P00519-2 141-240, all residues in D-configuration).
T4 construct: Mirror-image protein; also called D-Bcr-Abl SH2; D-SH2
T4 sequence: T1 chain
The data set can be described thus: fluorescence polarisation; direct binding of the fluorescent D-pY peptide to D-Abl SH2 (Fig. S1); conditions not shown. The conditions noted are these: both partners purified. On the technique in general: In fluorescence polarisation assays a small probe gives low polarisation when free and higher when bound to something large.

Data set [9] deals with the molecule itself. Put plainly: crystal structure; L-DAM21 with D-Abl SH2 A198C; 0.16 M ammonium sulfate, 0.08 M sodium acetate pH 4.6, 20% PEG 4000, 20% glycerol; 100 K.

Where a chain is given by its changes, count along the chain named. Names and notes keep the numbering of the source. Non-standard residues stand in square brackets, D forms with d. *: point of attachment. 5FAM = O=C1OC2(c3ccc(O)cc3Oc3cc(O)ccc32)c2ccc(C(=O)*)cc21

B1: monobody DAM27 displayed on yeast (designed binder)
chain: ASSVPTKLEVVAATPTSLLISWDAPAVTVDHYVITYGETGGGGGSQEFEVPGSKSTATISGLKPGVDYTITVYAYEFYSGEYSHFSPISINYRT
The Kd is a measure of binding affinity in units of concentration. On to B1, for which the affinity in data set [1], expressed as Kd, was 24 nM.

B2: L-monobody DAM27 (recombinant) (designed binder)
chain: B1 chain
Turning to B2, the affinity in data set [2], expressed as Kd, was 72.3 nM.

B3: synthetic D-DAM27-XTEN (mirror-image monobody) (designed binder)
chain: AASSVPTKLEVVAATPTSLLISWDAPAVTVDHYVITYGETGGGGGSQEFEVPGSKSTATISGLKPGVDYTITVYAYEFYSGEYSHFSPISINYRT
modifications: all residues in D-configuration; biotin at the N-terminus
What is called stoichiometry N is a count of units in the complex or per binding partner. With B3, in [3], the dissociation constant (Kd) was 125 nM. In addition, in [4], the stoichiometry N turned out to be 1.

B4: L-monobody DAM21 (recombinant) (designed binder)
chain: ASSVPTKLEVVAATPTSLLISWDAPAVTVDHYVITYGETGGNSPVQEFTVPGSKSTATISGLKPGVDYTITVYASDYYDGEISWYSPISINYRT
Turning to B4, the Kd in [2] turned out to be 11.9 nM.

B5: monobody DAM21 displayed on yeast (designed binder)
chain: B4 chain
Take B5: the Kd in data set [1] stood at 20 nM.

B6: synthetic L-DAM27-XTEN (designed binder)
chain: ASSVPTKLEVVAATPTSLLISWDAPAVTVDHYVITYGETGGGGGSQEFEVPGSKSTATISGLKPGVDYTITVYAYEFYSGEYSHFSPISINYRTAEGPSTAEGPSTAEGPST
modifications: biotin at the N-terminus
For B6, the affinity in data set [5], expressed as Kd, was 128 nM. The same molecule showed a stoichiometry N in [6] of 1.

B7: recombinant L-DAM27-XTEN (designed binder)
chain: B6 chain
Turning to B7, the equilibrium dissociation constant (Kd) in [5] came out at 97.6 nM. This molecule also came in with a stoichiometry N in data set [6] of 1.

B8: L-monobody DAM30.1 (recombinant) (designed binder)
chain: MAASSVPTKLEVVAATPTSLLISWDAPAVTVDHYVITYGETGGGWYGQEFEVPGSKSTATISGLKPGVDYTITVYAYEFYSGEYSHFSPISINYRT
With B8, binding in [7] was characterised by a dissociation constant (Kd) of 90.3 nM.

B9: L-monobody DAM28 (recombinant) (designed binder)
chain: MAASSVPTKLEVVAATPTSLLISWDAPAVTVDHYVITYGETGGNSPVQEFTVPGSKSTATISGLKPGVDYTITVYAYEYWEYEYSSYSPISINYRT
Take B9: binding in data set [7] was put at a Kd of 58.9 nM.

B10: monobody DAM26 displayed on yeast (designed binder)
chain: B8 chain with G44N, W45S, Y46P, G47V, E51T
As to B10, the Kd in data set [1] was 32 nM.

B11: monobody DAM28 displayed on yeast (designed binder)
chain: B9 chain
B11 came in with a Kd in [1] of 68 nM.

B12: L-monobody DAM26 (recombinant) (designed binder)
chain: B8 chain with G44N, W45S, Y46P, G47V, E51T
B12 showed a dissociation constant (Kd) in data set [7] of 249 nM.

B13: D-pY peptide 5-carboxyfluoresceine-EPQpYEEIPIYLK-CONH2 in D-configuration (peptide)
peptide: 5FAM-[dE][dP][dQ][dpY][dE][dE][dI][dP][dI][dY][dL][dK]-NH2
notes: also called D-pYEEI peptide; D-phospho tyrosine (pY) peptide; source: synthetic peptide, bought: Peptide Synthetics (UK)
With B13, in [8], the Kd was approximately 5000 nM.

B14: L-monobody DAM30.2 (recombinant) (designed binder)
chain: MAASSVPTKLEVVAATPTSLLISWDAPAVTVDHYVITYGETGAYVSGPQEFTVPGSKSTATISGLKPGVDYTITVYAYEFYSGEYSHFSPISINYRT
For B14, the affinity in data set [7], expressed as Kd, was 189 nM.

B15: D-Abl SH2 A198C (synthetic D-Abl SH2 domain not desulfurized, cysteine at position 198) (domain or fragment, human)
chain: T1 chain with A58C
modifications: all residues in D-configuration
notes: SH2 domain of human ABL1 (BCR::ABL1); Found as a disulfide-bridged (Cys198) dimer in both crystal structures; also called D-SH2
With B15, in data set [9], the binding result was “binds”.

The record behind these values is PMC11666773, “Development of mirror-image monobodies targeting the oncogenic BCR::ABL1 kinase” (Nature Communications, 2024).
